In PMC7246297:

B1: N Aptamer 2 (78 nt) (ssDNA)
DNA: GCAATGGTACGGTACTTCCGGATGCGGAAACTGGCTAATTGGTGAGGCTGGGGCGGTCGTGCAGCAAAAGTGCACGCT
B2: N Aptamer 1 (88 nt) (ssDNA)
DNA: GCAATGGTACGGTACTTCCGGATGCGGAAACTGGCTAATTGGTGAGGCTGGGGCGGTCGTGCAGCAAAAGTGCACGCTACTTTGCTAA
B3: N Aptamer 3 (57 nt) (ssDNA)
DNA: GCAATGGTACGGTACTTCCGGATGCGGAAACTGGCTAATTGGTGAGGCTGGGGCGGT

Assays:
Test in all cases: ELAA
Nucleocapsid (N) protein = Nucleocapsid (N) protein (SARS-CoV-2, UniProt P0DTC9 1-419)
[1] = target: Spike receptor-binding domain (S-RBD-Fc) (SARS-CoV-2, UniProt P0DTC2 319-541)
[2] = target: 3C-like protease (3CLpro) (SARS-CoV-2, UniProt P0DTD1 3264-3569)

| Binder | binding result (Nucleocapsid (N) protein) | binding result [1] | binding result [2] |
| --- | --- | --- | --- |
| B1 | binds | – | – |
| B2 | binds | – | – |
| GCAATGGTACGGTACTTCCGGATGCGGAAACTG (ssDNA) [Aptamer n.c. (33 nt)] | no binding | no binding | no binding |
| B3 | binds | – | – |
